B1: HBV ENV 253 … (peptide)
peptide: CLIFLLVLLDY
modifications: not checked
B2: HBV POL 528 peptide … (peptide)
peptide: RAFPHCLAF
modifications: not checked
B3: HBV POL 739 SVVLSRKY (peptide)
peptide: SVVLSRKY
modifications: not checked
B4: HBV NUC 177 peptide […] (as printed) (peptide)
peptide: VVRRRGRSPR
modifications: not checked
B5: HBV NUC 169 … (peptide)
peptide: LSTLPETTVVR
modifications: not checked
B6: […] (HBV POL 414) (peptide)
peptide: WLSLDVSAAFY
modifications: not fully specified
B7: HBV POL 412 … (peptide)
peptide: LSWLSLDVSA
modifications: not checked
B8: … (HBV POL 122) (peptide)
peptide: YLPLDKGIKPY
modifications: not checked
B9: HBV POL 627 peptide … (peptide)
peptide: GLLGFAAPF
modifications: not checked
B10: HBV NUC 163 peptide … (peptide)
peptide: RSPRRRTPSPR
modifications: not checked
B11: HBV POL 519 … (peptide)
peptide: TSAICSVVRR
modifications: not checked
B12: HBV POL 2 peptide PLSYQHFR (peptide)
peptide: PLSYQHFR
modifications: not checked
B13: HBV X 11 peptide … (peptide)
peptide: PARDVLCLR
modifications: not checked
B14: HBV POL 519 10-mer peptide … (SEQ ID NO: 668) (peptide)
peptide: TSAICSVVRR
modifications: not checked
B15: HBV POL 738 NSVVLSRK (peptide)
peptide: NSVVLSRK
modifications: not checked
B16: HBV X 64 … (peptide)
peptide: SSAGPCALRF
modifications: not checked
B17: HBV X 65 … (peptide)
peptide: SAGPCALRF
modifications: not checked
B18: HBV POL 377 LWDFSQF (peptide)
peptide: LVVDFSQF
modifications: not checked
B19: HBV POL 99 LTVNEKRR (peptide)
peptide: LTVNEKRR
modifications: not checked
B20: HBV NUC 75 NLEDPASR (peptide)
peptide: NLEDPASR
modifications: not checked
B21: HBV POL 771 … (peptide)
peptide: SALNPADDPSR
modifications: not checked
B22: HBV ENV 339 LVPFVQWF (peptide)
peptide: LVPFVQWF
modifications: not checked
B23: HBV POL 45 … (peptide)
peptide: NLNVSIPWTHK
modifications: not checked
B24: HBV NUC 188 RTPSPRRR (peptide)
peptide: RTPSPRRR
modifications: not checked
B25: HBV POL 520 SAICSVVR (peptide)
peptide: SAICSVVR
modifications: not checked
B26: HBV X 65 SAGPCALR (peptide)
peptide: SAGPCALR
modifications: not checked
B27: HBV ENV 253 peptide CLIFLLVL (peptide)
peptide: CLIFLLVL
modifications: not checked
B28: HBV POL 521 peptide … (peptide)
peptide: AICSVVRRA
modifications: not checked
B29: HBV ENV 249 peptide … (peptide)
peptide: ILLLCLIFLLV
modifications: not checked
B30: HBV ENV 312 peptide … (peptide)
peptide: CIPIPSSWA
modifications: not checked
B31: HBV POL 533 peptide … (peptide)
peptide: CLAFSYMDDV
modifications: not checked
B32: HBV ENV 249 peptide … (9-mer, as printed) (peptide)
peptide: ILLLCLIFL
modifications: not checked
B33: HBV POL 625 peptide … (peptide)
peptide: IVGLLGFAA
modifications: not checked
B34: HBV NUC 23 peptide … (peptide)
peptide: CLGWLWGMDI
modifications: not checked
B35: HBV X 102 peptide … (peptide)
peptide: AMSTTDLEA
modifications: not checked
B36: HBV POL 567 peptide … (peptide)
peptide: GIHLNPNKTK
modifications: not checked
B37: peptide 26.0539 (HBV POL 376, …) (peptide)
peptide: RLVVDFSQFSR
modifications: not checked
B38: peptide 26.0535 (HBV X NUC FUS 299, …) (peptide)
peptide: GVWIRTPPAYR
modifications: not checked
B39: peptide 26.0153 (HBV X 64, …) (peptide)
peptide: SSAGPCALR
modifications: not checked
B40: peptide 1.0219 (HBV X 1550, …) (peptide)
peptide: FVLGGCRHK
modifications: not checked
B41: peptide 20.0130 (HBV pol 655, …) (peptide)
peptide: AFTFSPTYK
modifications: not checked
B42: peptide 1.0993 (HBV X 130, …) (peptide)
peptide: KVFVLGGCR
modifications: not checked
B43: peptide 1147.16 (HBV pol 149, …) (peptide)
peptide: HTLWKAGILYK
modifications: not checked
B44: peptide 20.0131 (HBV pol 524, …) (peptide)
peptide: SVVRRAFPH
modifications: not checked
B45: peptide 26.0023 (HBV X NUC FUS 296, VSFGVWIR) (peptide)
peptide: VSFGVWIR
modifications: not checked
B46: HBV ENV 243 8-mer FIIFLFIL (peptide)
peptide: FIIFLFIL
modifications: not checked
B47: HBV ENV 246 9-mer … (peptide)
peptide: FLFILLLCL
modifications: not checked
B48: HBV POL 406 peptide … (peptide)
peptide: NLLSSNLSWL
modifications: not checked
B49: HBV ENV 184 LLTRILTI (peptide)
peptide: LLTRILTI
modifications: not checked
B50: HBV POL 42 peptide … (peptide)
peptide: NLGNLNVSI
modifications: not checked
B51: HBV NUC 119 peptide LVSFGVWI (peptide)
peptide: LVSFGVWI
modifications: not checked
B52: HBV POL 40 9-mer … (peptide)
peptide: DLNLGNLNV
modifications: not checked
B53: HBV POL 752 … (peptide)
peptide: LLGCAANWI
modifications: not checked
B54: HBV ENV 260 LLDYQGML (peptide)
peptide: LLDYQGML
modifications: not checked
B55: HBV ENV 254 LIFLLVLL (peptide)
peptide: LIFLLVLL
modifications: not checked

No end group written: not given here.

The first test deals with HLA-A*0301 (human).
Assay: not given
Conditions: not given
Take B1: the binding affinity ratio (IC50 of standard peptide / IC50 of test peptide) is 0.0083.

With B2, the binding affinity ratio (IC50 of standard peptide / IC50 of test peptide) is 0.0015.

For the molecule B3, the binding affinity ratio (IC50 of standard peptide / IC50 of test peptide) was -0.0002. Still for that read-out and setting: for B4 the value was 0.0027.

Regarding B5, the binding affinity ratio (IC50 of standard peptide / IC50 of test peptide) was -0.0009. Turning to B6, the binding affinity ratio (IC50 of standard peptide / IC50 of test peptide) was 0.0034. On the same count and under the same terms, for B7 the value was 0.0048; for B8, -0.0004. Same read-out and setting: for B9 the value was 0.0006; for B10, -0.0007; for B11, 0.0018.

Another test has as its target HLA-A*3101 (human). The test can be described thus: inhibition of 125I-labelled standard peptide binding to purified HLA.
Conditions: not given
For B12, the binding affinity ratio (IC50 of standard peptide / IC50 of test peptide) is -0.0009.

Regarding B13, the binding affinity ratio (IC50 of standard peptide / IC50 of test peptide) came to 0.01.

A further test has as its target HLA-A*3301 (human). The description is as above.
Conditions: not given
Turning to B12, the binding affinity ratio (IC50 of standard peptide / IC50 of test peptide) is -0.0009. On to B13, for which the binding affinity ratio (IC50 of standard peptide / IC50 of test peptide) is 0.018.

A further test addresses HLA-A*0301 (human). Description: competition with 125I-labelled standard peptide on purified HLA, gel filtration.
Conditions: not given
(Size exclusion chromatography separates by hydrodynamic size, large species first.)
As for B14, the binding affinity ratio (IC50 of standard peptide / IC50 of test peptide) was 0.0018.

Another test concerns the target HLA-A*0301 (human).
Assay: not given
Conditions: not given
This is another data set of the same source.
For the molecule B15, the binding affinity ratio (IC50 of standard peptide / IC50 of test peptide) was 0.0006. On the same count and under the same terms, for B16 the value was -0.0003; for B17, -0.0003; for B18, 0.0016. On the same count and under the same terms, for B19 the value was -0.0002. On to B20, for which the binding affinity ratio (IC50 of standard peptide / IC50 of test peptide) is -0.0002. Still for that read-out and setting: for B21 the value was -0.0004; for B22, 0.0028; for B23, -0.0009. For B24, the binding affinity ratio (IC50 of standard peptide / IC50 of test peptide) was -0.0002.

Staying with this test, now noted: remark: other sources report otherwise.
Turning to B25, the binding affinity ratio (IC50 of standard peptide / IC50 of test peptide) was -0.0002. For the molecule B26, the binding affinity ratio (IC50 of standard peptide / IC50 of test peptide) is -0.0002.

Another test addresses HLA-A*0201 (human). The test can be described thus: competition with 125I-labelled standard peptide for purified HLA, gel filtration.
Conditions: not given
B27: the binding affinity ratio (IC50 of standard peptide / IC50 of test peptide) was 0.0002. The same measure, in the same setting: for B28 the value was 0.0001. Regarding B29, the binding affinity ratio (IC50 of standard peptide / IC50 of test peptide) came to 0.0056. As for B30, the binding affinity ratio (IC50 of standard peptide / IC50 of test peptide) stood at 0.001. In the case of B31, the binding affinity ratio (IC50 of standard peptide / IC50 of test peptide) was 0.0008.

For the molecule B32, the binding affinity ratio (IC50 of standard peptide / IC50 of test peptide) came out at 0.0015. In the case of B33, the binding affinity ratio (IC50 of standard peptide / IC50 of test peptide) was 0.0009. On the same count and under the same terms, for B34 the value was 0.0093.

The same test, now with this note: remark: other sources report otherwise.
On to B35, for which the binding affinity ratio (IC50 of standard peptide / IC50 of test peptide) came to 0.0013.

Another test has as its target HLA-A*3101 (human). Description: competition with 125I-labelled probe peptide for purified HLA, gel filtration.
Conditions: not given
For the molecule B36, the binding affinity ratio (IC50 of standard peptide / IC50 of test peptide) was found to be 0.0009. In general, IC50 refers to the concentration that inhibits the measured activity by half. A lower IC50 goes with greater potency. In turn, B37 yielded an IC50 of 7 nM. Same read-out and setting: for B38 the value was 3 nM.

Staying with this test, now noted: remark: other sources report otherwise.
As for B39, the IC50 amounted to 55 nM. Still for that read-out and setting: for B40 the value was 1500 nM; for B41, 3100 nM. The same measure, in the same setting: for B42 the value was 30 nM.

The target of the next test is HLA-A*3301 (human). The description is as above.
Conditions: not given
As to B36, the binding affinity ratio (IC50 of standard peptide / IC50 of test peptide) came to 0.0009.

The next test deals with HLA-A*03 (human). Described as above.
Conditions: not given
Molecule B37 gave an IC50 of 39 nM. Same read-out and setting: for B38 the value was 58 nM; for B43, 20 nM.

Staying with this test, now noted: remark: other sources report otherwise.
B44 came in with an IC50 of 100 nM.

B41 came in with a half-maximal inhibitory concentration (IC50) of 42 nM. The same measure, in the same setting: for B45 the value was 2750 nM.

A further test concerns the target HLA-A*0201 (human).
Assay: not given
Conditions: not given
As for B46, the binding affinity ratio (IC50 of standard peptide / IC50 of test peptide) was 0.0006. Regarding B47, the binding affinity ratio (IC50 of standard peptide / IC50 of test peptide) stood at 0.0002.

In the case of B48, the binding affinity ratio (IC50 of standard peptide / IC50 of test peptide) stood at 0.0016. With B49, the binding affinity ratio (IC50 of standard peptide / IC50 of test peptide) came out at 0.0026. Same read-out and setting: for B50 the value was 0.0047. On the same count and under the same terms, for B51 the value was 0.0004; for B52, 0.0004; for B53, 0.0011. On the same count and under the same terms, for B54 the value was 0.0004. Take B55: the binding affinity ratio (IC50 of standard peptide / IC50 of test peptide) was 0.0025.

The values above are taken from patent US20070059799A1.
